Data reported in paper PMC3540817, “Transfer of a Redox-Signal through the Cytosol by Redox-Dependent Microcompartmentation of Glycolytic Enzymes at Mitochondria and Actin Cytoskeleton” (Frontiers in Plant Science, 2012).

Legend:
[1] = target: the molecule itself; assay: far-Western, overlay or dot blot; 2 μg of each protein spotted on nitrocellulose, overlaid with 100 μg/ml aldolase with 0.1 mM GSNO, 5 mM GSSG, 1 mM diamide + 1 mM GSH or 0.5 mM H2O2 + 0.5 mM GSH, 1 h room temperature; glutaraldehyde cross-linking; anti-aldolase antibody
[2] = target: T1, recombinant GAPDH GapC1 (At3g04120) (A. thaliana, UniProt P25858 1-338); assay: far-Western, overlay or dot blot; GapC and BSA spotted on nitrocellulose, overlaid with VDAC3 in liposomes, without DTT (oxidized GapC); anti-VDAC1 serum, ECL; details: both partners purified
T1 construct: cytosolic NAD-dependent glyceraldehyde-3-phosphate dehydrogenase GapC1, A. thaliana, At3g04120; Redox reagents (diamide + GSH, GSSG, GSNO, H2O2 + GSH, DTT) were added to the mixtures; the redox state is told by the assay; source: recombinant, purified
T1 sequence (P25858 whole entry): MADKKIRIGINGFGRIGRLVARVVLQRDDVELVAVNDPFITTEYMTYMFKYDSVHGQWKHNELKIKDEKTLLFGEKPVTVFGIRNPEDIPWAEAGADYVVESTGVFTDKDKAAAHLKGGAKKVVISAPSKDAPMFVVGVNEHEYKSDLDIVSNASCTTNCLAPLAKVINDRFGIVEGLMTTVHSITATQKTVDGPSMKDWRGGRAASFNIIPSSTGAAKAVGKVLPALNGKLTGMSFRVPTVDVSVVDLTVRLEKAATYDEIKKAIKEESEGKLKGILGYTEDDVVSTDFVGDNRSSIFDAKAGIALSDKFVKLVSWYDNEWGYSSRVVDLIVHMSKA

B1: recombinant cytosolic fructose 1,6-bisphosphate aldolase (FBA6, At2g36460) (enzyme, A. thaliana, UniProt Q9SJQ9 1-358, looked up)
chain: MSSFTSKFADELIANAAYIGTPGKGILAADESTGTIGKRLASINVENVESNRRALRELLFTTPGALPCLSGVILFEETLYQKSSDGTPFVDMLKSAGVLPGIKVDKGTVELAGTNGETTTQGLDGLGDRCKKYYEAGARFAKWRAVLKIGVNEPSQLAIHENAYGLARYAVICQENGLVPIVEPEILVDGSHDIQKCAAVTERVLAACYKALSDHHVLLEGTLLKPNMVTPGSESAKVAPEVIAEHTVRALQRTVPAAVPAIVFLSGGQSEEEATRNLNAMNQLKTKKPWSLSFSFGRALQQSTLKTWGGKEENVKKAQEAFLVRCKANSEATLGAYKGDAKLGEGAAESLHVKDYKY
notes: cytosolic fructose 1,6-bisphosphate aldolase FBA6, A. thaliana, At2g36460; Redox reagents were added to the mixtures; no modified residues are named; the redox state is told by the assay; source: recombinant, purified
Q: Does B1 bind [1]?
A: binds

B2: VDAC3 (At5g15090) reconstituted into liposomes (natural protein, A. thaliana, UniProt Q9SMX3 1-274, looked up)
chain: MVKGPGLYTEIGKKARDLLYRDYQGDQKFSVTTYSSTGVAITTTGTNKGSLFLGDVATQVKNNNFTADVKVSTDSSLLTTLTFDEPAPGLKVIVQAKLPDHKSGKAEVQYFHDYAGISTSVGFTATPIVNFSGVVGTNGLSLGTDVAYNTESGNFKHFNAGFNFTKDDLTASLILNDKGEKLNASYYQIVSPSTVVGAEISHNFTTKENAITVGTQHALDPLTTVKARVNNAGVANALIQHEWRPKSFFTVSGEVDSKAIDKSAKVGIALALKP
notes: voltage-dependent anion channel VDAC3, A. thaliana, At5g15090; also called VDAC3 in liposomes; porin; source: cell-free system (RTS 100 Wheat Germ CECF), separated from the reaction mix via reconstitution into liposomes
Q: Does B2 bind [2]?
A: binds
